According to patent US20240270826A1:
pIC50: −log10 of the molar value.

Experiments:
[1] = target: SARS-CoV-2 spike protein S on live virus, Alpha variant (SARS-CoV-2 (Alpha variant)) (UniProt P0DTC2); assay: cell-based or functional assay
[2] = target: Human SARS-CoV-2 Delta (B.1.617.2) S (SARS-CoV-2 (Delta variant)) (UniProt P0DTC2); assay: flow cytometry SVNA: VHH-Fc inhibits S binding to ACE2 on Vero E6 cells
[3] = target: Human SARS-CoV-2 Gamma (P.1) S (SARS-CoV-2 (Gamma variant)) (UniProt P0DTC2); assay: as above
[4] = target: Human SARS-CoV-2 Kappa (B.1.617.1) S (SARS-CoV-2 (Kappa variant)) (UniProt P0DTC2); assay: as above

Work on VHH-72 VHH-Fc (Fc fusion) yielded an LVNA IC50 [1] of 1.86 nM, a pIC50 [2] of 7.98 and a pIC50 [3] of 8.48. The pIC50 [4] was 8.07.
